A word on the stoichiometry N: it is a count of units in the complex or per binding partner.

“And” between values parts separate entries of the source, which are not always exact repeats. Equal values may be shown once.

This is an account of results in paper PMC12394453.

The target of this assay is HeV-G (wild-type Hendra virus attachment glycoprotein G, soluble recombinant) (Hendra virus) (UniProt O89343). Briefly: SEC; oligomeric states of the purified G protein (Supplementary Fig. 7). (Size exclusion chromatography separates by hydrodynamic size, large species first.)

Chain of HeV-G (wild-type Hendra virus attachment glycoprotein G, soluble recombinant) (O89343 71-604 limits assumed): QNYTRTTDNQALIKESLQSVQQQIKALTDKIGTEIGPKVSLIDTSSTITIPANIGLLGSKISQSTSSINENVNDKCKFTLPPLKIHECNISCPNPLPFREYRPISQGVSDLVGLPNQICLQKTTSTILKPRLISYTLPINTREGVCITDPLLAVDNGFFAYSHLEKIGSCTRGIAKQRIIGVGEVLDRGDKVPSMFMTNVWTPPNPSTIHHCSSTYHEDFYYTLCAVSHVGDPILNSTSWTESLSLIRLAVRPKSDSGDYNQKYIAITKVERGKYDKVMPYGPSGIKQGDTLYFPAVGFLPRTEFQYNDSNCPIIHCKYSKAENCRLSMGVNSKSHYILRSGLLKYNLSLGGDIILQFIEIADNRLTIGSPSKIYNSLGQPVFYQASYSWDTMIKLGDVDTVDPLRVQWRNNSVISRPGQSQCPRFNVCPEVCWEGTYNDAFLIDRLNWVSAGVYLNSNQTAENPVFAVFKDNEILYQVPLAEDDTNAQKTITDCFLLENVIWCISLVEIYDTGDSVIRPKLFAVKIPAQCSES

Consider “HeV-G (wild-type Hendra virus attachment glycoprotein G, soluble recombinant) (from UniProt O89343 1-604) (natural protein)”, for which the stoichiometry N was 4 and 2.
